Experiments:
[1] = substrate: COC(=O)/C=C/c1ccc(O)c(OC)c1; test: HPLC of released free acid, Michaelis-Menten nonlinear fit; format: biochemical, Aspergillus niger; details: 100 mM MOPS-NaOH pH 6.0, 45 °C, 30 min, substrate stock in DMSO
Source text: (§1) HPLC of released free acid, Michaelis-Menten nonlinear fit on AnFaeA

[2] = substrate: COC(=O)/C=C/c1ccc(O)c(O)c1; test: as above; format: biochemical, Aspergillus niger; details: 100 mM MOPS-NaOH pH 6.0, 45 °C, 30 min, substrate stock in DMSO
Source text: as §1

B1: AnFaeA (Aspergillus niger) (protein)
chain: ASTQGISEDLYNRLVEMATISQAAYADLCNIPSTIIKGEKIYNAQTDINGWILRDDTSKEIITVFRGTGSDTNLQLDTNYTLTPFDTLPQCNDCEVHGGYYIGWISVQDQVESLVKQQASQYPDYALTVTGHSLGASMAALTAAQLSATYDNVRLYTFGEPRSGNQAFASYMNDAFQVSSPETTQYFRVTHSNDGIPNLPPADEGYAHGGVEYWSVDPYSAQNTFVCTGDEVQCCEAQGGQGVNDAHTTYFGMTSGACTW
notes: recombinant, expressed in Pichia pastoris as described previously
For B1, the Km [1] was 1420 ± 260 µM and the Km [2] was 870 ± 170 µM.
